Experimental data published in paper PMC3791466, “Structure of a helicase–helicase loader complex reveals insights into the mechanism of bacterial primosome assembly” (Nature Communications, 2013).

T1: Bacillus stearothermophilus helicase DnaB (B. stearothermophilus, UniProt Q9X4C9 1-454)
T1 construct: replicative DNA helicase DnaB of Bacillus stearothermophilus; N-terminal domain, linker and C-terminal RecA-fold domain; both the NTD and the CTD are in the structure; also called BstDnaB; hexameric helicase ring
T1 sequence: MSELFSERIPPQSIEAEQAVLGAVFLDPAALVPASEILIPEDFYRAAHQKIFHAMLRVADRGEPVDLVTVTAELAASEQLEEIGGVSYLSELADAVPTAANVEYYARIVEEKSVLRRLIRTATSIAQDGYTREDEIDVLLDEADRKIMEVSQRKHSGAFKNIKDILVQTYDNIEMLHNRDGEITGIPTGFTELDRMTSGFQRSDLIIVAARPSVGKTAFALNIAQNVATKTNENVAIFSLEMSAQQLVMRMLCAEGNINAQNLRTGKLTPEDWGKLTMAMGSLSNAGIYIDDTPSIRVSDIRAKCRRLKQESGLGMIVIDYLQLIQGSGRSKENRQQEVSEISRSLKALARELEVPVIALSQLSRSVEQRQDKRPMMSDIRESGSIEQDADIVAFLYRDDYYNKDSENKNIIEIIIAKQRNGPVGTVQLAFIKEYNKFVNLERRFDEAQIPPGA

T2: Bacillus subtilis helicase loader protein DnaI (B. subtilis), P06567
T2 chain: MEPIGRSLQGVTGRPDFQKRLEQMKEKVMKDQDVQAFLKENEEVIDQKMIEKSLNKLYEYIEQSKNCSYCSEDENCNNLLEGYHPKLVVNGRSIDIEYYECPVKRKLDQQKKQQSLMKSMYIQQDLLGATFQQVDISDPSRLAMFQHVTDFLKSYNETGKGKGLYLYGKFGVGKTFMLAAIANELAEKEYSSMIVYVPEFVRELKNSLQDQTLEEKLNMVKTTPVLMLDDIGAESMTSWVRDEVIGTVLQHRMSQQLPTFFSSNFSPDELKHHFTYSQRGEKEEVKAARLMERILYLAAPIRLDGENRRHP

B1: Bacillus subtilis helicase loader protein DnaI (natural protein, B. subtilis)
chain: T2 chain
notes: primosomal helicase loader DnaI of Bacillus subtilis 168, cloned by PCR from genomic DNA into NcoI-XhoI of pET21d(+); the reverse primer has no stop codon before XhoI, so a C-terminal His tag of the vector is surmised; No cleavage of the tag is described; also called BsuDnaI
B2: helicase-binding domain (HBD) of Bacillus stearothermophilus primase DnaG (domain or fragment, B. stearothermophilus)
chain: KLLPAFQNAERLLLAHMMRSRDVALVVQERIGGRFNIEEHRALAAYIYAFYEEGHEADPGALISRIPGELQPLASDVSLLLIADDVSEQELEDYIRHVLNRPKWLMLKVKEQEKTEAERRKDFLTAARIAKEMIEMKKMLSSS
notes: also called HBD of BstDnaG; HBD of primase DnaG

How the values were obtained:
[1] = target: T1, Bacillus stearothermophilus helicase …; test: crystal structure; 570-kDa complex of BstDnaB, BsuDnaI and HBD of BstDnaG, molecular replacement, 7.5 Å; proteins in the crystals confirmed by tryptic digestion and mass spectrometry; settings: both partners purified
[2] = target: T2, Bacillus subtilis helicase loader …; test: SEC-MALS; gel filtration and multiple-angle light scattering of BsuDnaI alone at 10 mg/ml; settings: remark: other sources report otherwise
[3] = target: T2, Bacillus subtilis helicase loader …; test: crystal structure; 570-kDa complex of BstDnaB, BsuDnaI and HBD of BstDnaG, molecular replacement, 7.5 Å; proteins in the crystals confirmed by tryptic digestion and mass spectrometry; settings: remark: other sources report otherwise
[4] = target: T1, Bacillus stearothermophilus helicase …; test: crystal structure; another crystal form obtained under different conditions, content shown by molecular replacement; settings: both partners purified

Binder	stoichiometry N [1]	percent monomer at 10 mg/ml [2] [%]	stoichiometry N [2]	stoichiometry N [3]	stoichiometry N [4] [HBDs per DnaB hexamer]
B1	3 loader dimers per helicase hexamer	93	2	6	–
B2	3 HBDs per helicase hexamer	–	–	–	3
